In the NTF2 design screens of Basanta et al. (2020) one finds protease stability score data, which are given here for 47 sequences.

This series can be described thus: protease stability score; higher = more stable; yeast display proteolysis, trypsin and chymotrypsin.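 Note: relative to predicted unfolded state with 0 unfolded-like and 1 meaning tenfold more protease.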
In turn, “DEDEEDMRHALELIYRTFETGDERTTEELMDPHARIDIGEFKLHGREEAVEFYRLLLRKVKNLTIKIHHVEVYGEKITIDGRIDFDGRKRRVIILVEKVDGKWVINEIRVH” yielded a protease stability score of 1.42.

The sequence “DEDEEDVDRVSRRWARAMTTGDEDELRELLDPNTRYVQGDKHLHGRTQFERHLREMRFIIHDVRVDNITIIDGRMHIHGHVVGELRTEDHEHHFIFRFHLIVMKINGKWLIKHVDVQ” showed a protease stability score of 0.819.

For the sequence “DEDEEEAEERVKEWIKALRTGDEDHILELVDPNDRFIINGVHLHGREFLLRWLRELRVDDVEVKTIKFVDGVAHVDTKMRVTVDGRETELETRLIWKKFDGRWFIESHRIR”, the protease stability score turned out to be 1.62.

“DEDEEEAEKFFWTWVESVLTGDEDMLHHLVDPNVRYSQGEKQIHGRESVVKFMSEARVDSIRIKSMHIFNGRINIDSEIDGVINGKRTRIKVHLYILKVDGRWLMQSIEVK” displayed a protease stability score of 2.03.

In turn, “DEDEEEAKEFLRIYIEALRTGDEDLWKEMADPNMRLIVGDKERHGRESYTHWERELGYRLEHIHIDHVTFQGDKVDVETTLRIHINGQTHDVEIHLIVTKIDGRWHMKEIIIK” gave a protease stability score of 1.08.

As to “DEDEEEALDFMRLLVESLQTGDEELISRMADPNVLLIVNGVEHVGREFYVKWVKHLVERVDHMEIRLKRIEIYDGRAHLDTEVIFRFNGRELRKKTHLIIEKVDGRWILKSVIVE”, the protease stability score was 2.35.

“DEDEEEARKSFKHLLRSRMTGDEDSLKSLIDPNARFDIDGKELIGREAEELLLEKFKNIKLHDVKLNDWRVDEHHVVWRIELDGFYNGKRDSLDFTLIVKKVNGRWVIHQVKLI” yielded a protease stability score of 1.39.

In turn, “DEDEEEIKRMIEEWFRSLVTGDEHQLKELMDPHVRLDINGVEHIGREEIVERLVKEARQADHMEFRVRDVRLVGDYAEIDGELIVNYNGREKSIETRIILWKFNGRWIDHQVHYK” had a protease stability score of 1.03.

On to “DEDEEELEKMLHKMLESLRTGDWKDITENLDPHTRFNINGVDFHGRELAHEVLHEWFERYKNIRIFLNTSRTINGRVELILRIEIGDKEEEMRILVIKVDGRWFMDTVDVRTR”, for which the protease stability score came to 2.13.

“DEDEEEMEKMSREISEMLLTGDFDRLLELLDPNYRLRIGDKDLHGREEAKKHMHELFRHLGVDKFEVRLKQVELVDGVIWVHIEQRYDGRDFQIHVINKKIDGRWHVRRVEFE” displayed a protease stability score of 1.72.

As to “DEDEEEMHHRIEEHFEYLRTGDWKLIRNLVDPSVRVDVDGKEHHGWHEFVRYAVHIRVRRYELKHIRIIDGQVDFQGRIDGEIDGKFRSFNIFIIAQKIDGRWIFKEVRMH”, the protease stability score is 1.68.

In the case of “DEDEEEMRRVVELLVRDHFTGNFEKLKDLFDPNAKSDVDGVSMVGREWLEFLKRYLGADHIEVRVRHEDYYGNKVHFHLEIISRYGDKEIHVDTEMVIDKVDGRWYVRETRFK”, the protease stability score turned out to be 0.854.

“DEDEEESRRFTEILLHKFWTGDEDWYRKMADPNDKSVVGDKLFHGRDEVDRAIHEFLRHLGVDHFELHRLEVDHYNGKAEVRSDMILRVNGQERRMILKVHNTKFNGRWTLESVRIESR” gave a protease stability score of 0.715.

For “DEDEEEVIKFFQEFLRDELTGDWHEVHRMLDPHARLDINGKHFVGREDVTEFFKKLVNELRIHDVHIKDVRIIGEKASIDTSVDGEVNGRKRHFETRIIILKIDGQWFLHEVHMR”, the protease stability score worked out at 1.47.

With “DEDEEEVRKFLHLELRSMETGDEHDLRRLADPHVRIHINGVILHGWEFFLETFRKLGFDHLRIEHVEVQGEKVHIKSRFEIGDKSFETEIIIRKVDGRWYVESIIVN”, the protease stability score is 0.873.

Sequence “DEDEEEWHRFLELVHHFLRTGDWRRILDLIDPRALVHVGDKTFHGRHAIEHLLRHIHDRIPGMKQSLIIDHHDSQGDKIHLDVTLDLHFNGVEYHLRERTLELKINGKWVEKVREVD” showed a protease stability score of 0.821.

As for “DEDEEEYRRMHEILDDALETGDEHTISRMADPHVRNEINGVKLHGREIWFEYMKRLLDHLGVDNIKIKIRLRHIDRQGDKVLSETRLHVYFNGVEERRRTSQVWLKIDGQWHLHHVSVE”, the protease stability score came out at 0.869.

In turn, “DEDEEFAENVVERTIHHTQTGDWRMLKHLLDPHVRMNIDGQELHGREQWIRFMEQIKGATLELHIEDFDSQGEKLTLHVRTILVFDGRKYERHVDLLILKVDGRWHIHQFIVR” registered a protease stability score of 1.41.

“DEDEEFAKELLERTAESIVTGDEDMWREYFDPHARIEFNGKDYHGWHEFERMLRELRVHRVEVEVKRVHLYDGRMDVKGELHIKGTFDGRRVEESTDVDYFIIKIDGQWYIRHETII” registered a protease stability score of 0.761.

In the case of “DEDEEFSKEAFEMVEWVIRTGDERLIEHMMDPNAKILIDGQEFWGRHIFSKHVEELGIDHIDDFQVKDVTFFNGRVNLNGELRGNFNGKETTFELHTIALKVNGQWINHSLEIK”, the protease stability score is 0.658.

Consider “DEDEEFWKELLRLFNEALITGDEDLLSHYADPNTRIRDENHKIHGRERYSRLMVKLGIDHVHLHSFTIIDGVAHIHLEWHQGDKTLDVRSYSRKFNGRWFLTHVRIK”, for which the protease stability score came to 1.05.

On to “DEDEEHARHMLEIFMHAVITGDEDTLKELVDPNVKLVVNGREFHGWEEYLKVHRHWRMRDAHIKHVEVQGEKVIVDTRLHGRVDGKLTDFRTEIIVRKINGRWHLESERVH”, for which the protease stability score is 2.13.

For “DEDEEHAYRIFKILLESVYTGNEEMLHTLLDPHARLVFDGVHHHGRETVSYMMHHWRVEEFHTHSFHVDIINGVADLKWDGHITGHFNGKRQESRVEIRFFLRKVDGKWLNESVEIIFR”, the protease stability score worked out at 1.49.

“DEDEEIARKIMEMLIEELRTGDEEKSTENADPNVRVHFNGKDLHGWEEFSRLASKFKGLRFILRRMDVFNGRVVIDGEERWDGRTHRVILHIEKVNGRWRIKQVDIH” had a protease stability score of 1.63.

“DEDEEIAVKSYKKIVEDFFTGDEDSARRNADPDVLLRVGDKELHGWKHMTSWVHELRIHRIDIREIRVIGDKMFLHGEVDSEIDGKRLEFHLKLRMEKVDGRWIIRKIEIK” had a protease stability score of 1.49.

“DEDEEIDKHVAKHLEELFLTGDEKRLSQYFDPDVRNEVNGKEFHGRELLLKVLRDFGADHRTVEHREVSLYGEKMRFHIHLRLHVGDKSMTTILHIIIDKVNGRWHFEKIRIDVR”: the protease stability score was 0.798.

Consider “DEDEEIIEKWVKMMLDAAHTGDERIIEENFDPNTRIHVDGQNHHGREHVHELRRRADYIRIILIIRSIRTQGDYVHVKGEIRIRINWNGRELHLEVEVEIIFLKFDGRWHIRSIVSI”, for which the protease stability score is 0.889.

Turning to “DEDEEIRTRSLRLLIQLLITGDEEIFKQLFDPHALVIINGRRHHGWTLLEEYWRRLGADVIKSVELENTDDVNGVLILDMRLHMHINGRDDSQRIHIIATKINGKWRNESIVLS”, the protease stability score stood at 1.22.

“DEDEEISHRMVRLIMQLMVTGDEESLKEYFDPNTRLFIDGRNNHGRELAVDEIQKHFEELGVDHIEIRIHHKDAQGDFVEIHIRLIIHVGDFEVRSTVHIFVRKVDGRWMIEKIEIK” had a protease stability score of 2.03.

The sequence “DEDEEISKRLLKQLIHMLKTGDEDLFWHLFDPDTRLIVGDKEDHGREELAKSIRELWHEIRIERLHLRSIHIIGDFIHLIVRLIRNVNGKKDDINLELIVIKVDGKWRFKEMEIQ” displayed a protease stability score of 1.44.

For “DEDEEITERIIRLLLNAWMTGDEEMLKRLFDPHVRIDQGDKNLIGWEELERETRRIDHIRLDLRIKHIKVYDGRVEINSFLHVDLHINGVTLHHELRMHIIIEKVDGRWIIHSQKLE”, the protease stability score was determined as 1.25.

For the sequence “DEDEEKAKEAWEDIVRDIETGNEESMEKMLDPNTRLVVGEKERHGWESASKFVRELRHRVDHVELRLKDSKLYNGRVELDGLLIENFNGVEVRHKMIVFILKINGRWHIESVIIH”, the protease stability score stood at 1.44.

For “DEDEEKARKFTELLVRSWRTGDEDSLREMVDPHVRVDVDGVKLHGWHDFMKLVRHIRVRDLHNREFTFFEGRADIIQETDVDIGDKERRTVITIRMTKYDGRWFLHNVTVH”, the protease stability score worked out at 1.38.

“DEDEEKKDEARRLWEENLMTGDEETLFRLADPHVRTVINGVEFHGREEMLKAIRWLRHDLGAKHIDSIHIDSVTIQGDFVIVHGHLRFSIGDKRTDSEVHLHVLKVDGKWYVHEVNIN” displayed a protease stability score of -0.183.

As for “DEDEEKLKEFRDVLLHAISTGDEETIKTLVDPHVRIEIDGKERHGRDKVTKLFRDLGVDHVRLTEVSIIGDKLHLDLRLRYGDKERTMIWIISKINGRWLIHTVETH”, the protease stability score stood at 1.15.

“DEDEEKVEHISKEYFRSFVTGDEDKLRKLLDPNARVYFNGQTVIGRELATKIVLELRNRQVEVDHLHIEYQGDKARLHQITTIDGHINGRDEWFEFHIEVHLRKVNGKWVIQRSEFEIR” registered a protease stability score of 0.252.

The sequence “DEDEELAKHAIKHWLEALETGDEKRLKELIDPNTRLIVNGQEFHGMESVSKKLIEEIERIPNVTLELHDVRIYNGRVNTDVTVRYNGRTITLHLIILKVNGKWIMESIQLH” yielded a protease stability score of 1.78.

Turning to “DEDEELAKKAVEEFFTAWETGNEERLEELMDPNVRSHINGVDLHGMERTSEYIRRLGHTKVETYLRRVRVFENRVEVDGDIIVDGRKHKFHLDMRKINGRWFIHRVSVK”, the protease stability score worked out at 2.42.

On to “DEDEELAKKFIEEWHESVLTGDEDSLRKLADPNMKVNVDGRHMVGWEYYKHLLERIDHLTSIEIKRLRVIDGVIDTDVRMDITFDGKRHLLETQLIVLKVNGRWHLRSISMK”, for which the protease stability score came to 1.36.

Turning to “DEDEELALKMLEQWLRDLLTGDEETMVDLLDPNARLEIGDKENHGRDEVRKFWEELKKRFKNVRMEIEVHEIRVIGNKVHSINTLIIIIGDKRIKHHIHVHVVIFNGRVHSVHISIH”, the protease stability score is 1.35.

Regarding “DEDEELARKFIKKTSEARETGNEDDFMNLADPNVRQDINGVPIIGREEVSRIISHLRIRMEIRIRDVRIVGEKVELDVHIRMDIDFDGQRIHDKRDVHIILVKIDGKWLLHSVNHR”, the protease stability score was 0.536.

For “DEDEELARKVLKVWNQAVQTGDEEVLHKLFDPNVQLVQGDKQLHGMESLVRFLRRYDVVRHVDSDVERIHVQGDKIRVTIRLIVDMEINGKRVRTELTIHFIIEKIDGRWVLRELHFE”, the protease stability score came out at 0.964.

In turn, “DEDEELARQIWELFVRAEETGDEELLEKLIDPHTRLHIGDKVFHGRDAIKHIRKRVDHVKRVHVESIRVFDGRVEIHSRQRWEINGVEVEQKFRFTMQKINGRWIMHDMSIL” showed a protease stability score of 1.79.

Sequence “DEDEELARRHLKRLMEIWNTGDEDSHRHLADPHMRYIYNGKQTHGRQVSAKILLEMRIDHLEIKRMHLVDGKLEIDGRMEGEVNGRKDTVEVIIHNEKVNGRWIIRELQFG” had a protease stability score of 0.503.

Sequence “DEDEELDRKFTTLFLHLWETGDEDTMRDLLDPDVRLLIIYNGRHIEVHGREHMSKFLKDFWRKFKNLRIHVKHVEAIDGVVHISGETRFDGRSTLVQIDIDVVDGRIKSERYIFR” registered a protease stability score of 1.76.

Regarding “DEDEELIEKLLRLEEFAHKTGDERIMEELADPNTRLDINGRREHGMESFIRWLREARYTHFIWRDKIEIGEKMEIQGEVEGTYNGVRHRTEVILFVEKINGRWIIKEIEVR”, the protease stability score was determined as 1.76.

In turn, “DEDEELLREFFELLVEAELTGDEKEITRFADPNVILFQGEKEFHGRDFLIRLIMEIRIHHHELERFHLDVFNGRAEIHVDNRRDGWFDGKRIHTKVDLHIHSEKIDGRWLLKNINEILR” had a protease stability score of 0.716.
